Biological target: the molecule itself
Experiment: cross-linking; cells without TNFα stimulation, 1 mM BS3 for 30 min at room temperature on whole cells; RIPA lysate, nonreducing SDS-PAGE, anti-Flag blot

B1: TNF receptor 2 (TNFR2) with a 3x FLAG tag, overexpressed in K562/ADR cells (bisected N-glycans lacking) (receptor, human, UniProt P20333 23-461, looked up)
chain: LPAQVAFTPYAPEPGSTCRLREYYDQTAQMCCSKCSPGQHAKVFCTKTSDTVCDSCEDSTYTQLWNWVPECLSCGSRCSSDQVETQACTREQNRICTCRPGWYCALSKQEGCRLCAPLRKCRPGFGVARPGTETSDVVCKPCAPGTFSNTTSSTDICRPHQICNVVAIPGNASMDAVCTSTSPTRSMAPGAVHLPQPVSTRSQHTQPTPEPSTAPSTSFLLPMGPSPPAEGSTGDFALPVGLIVGVTALGLLIIGVVNCVIMTQVKKKPLCLQREAKVPHLPADKARGTQGPEQQHLLITAPSSSSSSLESSASALDRRAPTRNQPQAPGVEASGAGEARASTGSSDSSPGGHGTQVNVTCIVNVCSSSDHSSQCSSQASSTMGDTDSSPSESPKDEQVPFSKEECAFRSQLETPETLLGSTEEKPLPLGVPDAGMKPS
modifications: N-glycosylated; modification by bisected N-glycans on TNFR2 significantly suppressed in K562/ADR cells
notes: TNF receptor 2 (TNFR2), human, cDNA cloned from K562 cells; Same construct as m1; host K562/ADR cells have very low GnT-III; also called TNFR2-Flag; source: K562/ADR cells infected by virus with the CSIV-TRE-RfA-CMV-KT-TNFR2 plasmid, on the cell surface; not shown: 3x FLAG, C-terminal, kept
stoichiometry N: 3

Source: PMC10033316, “Expression of GnT-III decreases chemoresistance via negatively regulating P-glycoprotein expression: Involvement of the TNFR2-NF-κB signaling pathway” (The Journal of Biological Chemistry, 2023)
